Patent publication US7294753 (Biogen, dated 2007)
Where two headings read alike, the source gives them in different places.

Legend:
[1] = target: T1, human macrophage migration inhibitory factor (MIF) (human, UniProt P14174 2-115); assay: row 'human MIF Kd < 50 nm'; method not stated
T1 construct: The off-rate columns and the bioassay columns say only 'MIF'; also called rhMIF; human MIF

[2] = target: T1, human macrophage migration inhibitory …; assay: column 'Binds Human MIF'; method not stated
[3] = target: T1, human macrophage migration inhibitory …; assay: cell-based or functional assay
[4] = target: T1, human macrophage migration inhibitory …; assay: column 'Binds Human MIF'; method not stated; remark: listed apart in the source
[5] = target: T1, human macrophage migration inhibitory …; assay: cell-based or functional assay; remark: listed apart in the source
[6] = target: T1, human macrophage migration inhibitory …; assay: cell-based or functional assay; remark: listed apart in the source

T1 sequence (P14174 2-115 limits assumed): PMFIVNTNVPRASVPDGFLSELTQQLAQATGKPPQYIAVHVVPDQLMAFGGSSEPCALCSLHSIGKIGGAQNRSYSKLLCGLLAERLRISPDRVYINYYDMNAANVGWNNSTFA

Binder | Kd [1] [nM] | Kd [2] [nM] | % MIF PPT Activity [3] [%] | Kd [4] [nM] | % MIF PPt Activity [5] [%] | MIF Stimulated SRE Transcription (% MIF Activity), 10 µg mab/ml [5] [%] | % MIF PPT Activity [6] [%] | MIF Stimulated SRE Transcription (% MIF Activity), 10 µg mab/ml [6] [%]
anti-MIF monoclonal antibody 22F11-6 (antibody, V domains shown, Mouse hybridoma antibody from a MIF knockout mouse, purified from ascites; also called Mab 22F11-6) VH: EVKLEESGGGLVQPGGSMKLSCAASGFTFGDAWMYWVRQSPEKGLEWVAEIRSKAHNHATYYAESVKGRFTISRDDSKSSVYLQMSSLRAEDTGIYYCTSHHYGSSWYFDVWGAGTTVTVSS VL: DIQMTQSPASLSASVGETVTITCRASENIYSYLTWFQQKQGKSPQLLVYDAKTLAEGVPSSFSGSGSGTQFSLKIISLQPEHFGSYYCQHHYGRPYTFGGGTKLEIKR | < 0.1 | < 0.1 | 65 | < 0.1 | 65 | 42 | 65 | 42
anti-MIF monoclonal antibody 10B11-3 (antibody, V domains shown, Mouse hybridoma antibody from a MIF knockout mouse, purified from ascites; also called Mab 10B11-3; 1OB11-3) VH: EVQLQQSGPELVKPGASVRISCKTSGYTITEYTMHWMKQSHEKSLEWIGGITPNTGVLSDNQKFRGKATLTVDKSSNTAYMELRSLTSADSAVYYCARRGNNYYGSSPWFAYWGQGTLVTVSA VL: DIQMTQSPASLSVSVGETVTITCRASENIYSNLAWYQQKQGKSPQLLVYAATNLADGVPSRFSGSGSGTQYSLNIYSLQPEDFGSYYCQHFWGTPYTFGGGTKLEIKR | < 0.1 | < 0.1 | 136 | < 0.1 | 136 |  | 136 | 
anti-MIF monoclonal antibody 19B11-7 (antibody, V domains shown, Mouse hybridoma antibody from a MIF knockout mouse, purified from ascites) VH: QIQLVQSGPELKKPGETVKISCKASGYSFRNYGMNWVSQPPGKGLEWMGWINTYTGEPTYADDFKGRFAFSLDTSASTAYLTINNLKNEDTATYFCARSNYGNYFDYWGQGTTLTVSA VL: NIVLTQSPASLALSLGQRATISCRTSESVDSYASSFMHWYQQKPGQSPKLLIYLASNLESGVPARFSGSGSRTDFTLTIDPVEADDAATYYCQQSNEDPRTFGGGTQLEIKR |  | < 0.1 | 0 | < 0.1 | 0 | 29 | 0 | 29
anti-MIF monoclonal antibody 6B5-5 (antibody, V domains shown) VH: DVQLQESGPGLVKPSQSLSLTCTVTGSSITSDYAWHWIRQFPGNKLEWMGYISFSGSTGYNPSLKSRFSITRDTSKNQFFLQLNSVTTEDTATYYCAREAYGYDVGYFDYWGQGTTLTVSS VL: QIVLTQSPAIMSAFPGEKVTITCSASSSVSYMHWFQQKPGTSPKLWIYGTSNLASGVPVRFSGSGSGTSYSLTISRMEAEDAATYYCQQRSSYPWTFGGGTKLEIKR |  |  | 82 |  | 82 | 36 | 82 | 36

More lines, now with the values ahead:

Kd [1] [nM] | Kd [2] [nM] | % MIF PPT Activity [3] [%] | Kd [4] [nM] | % MIF PPt Activity [5] [%] | MIF Stimulated SRE Transcription (% MIF Activity), 10 µg mab/ml [5] [%] | % MIF PPT Activity [6] [%] | MIF Stimulated SRE Transcription (% MIF Activity), 10 µg mab/ml [6] [%] | Binder
 |  | 146 |  | 146 | 25 | 146 | 25 | anti-MIF monoclonal antibody 29B12-1 (antibody, V domains shown) VH: EVKLVESGGGSVQPGGSLKLSCATSGFIFSDYYMYWVRQTPEKRLEWVAYISIGSGNTYYPDTVKGRFTISRDIAKNTLYLQMSRLKSEDTAMYYCVRGRLRFLFDYAMDYWGQGTSVTVSS VL: not shown
 |  | 67 |  | 67 | 5 | 67 | 5 | anti-MIF monoclonal antibody 33G7-9 (antibody, V domains shown) VH: DVQLQESGPDLVKPSQSLSLTCSVTGYSITSGYYWNWIRQFPGNKLEWVGYLSYDGSKSHNPSLRNRISITRDPSKNQFFLKLNSVTTEDTATYYCARGGKIFYGSSYDPFAYWGQGTLVTVSS VL: DIQMTQSPASLSASVGETVTITCRASENIFNYLSWYQQKQGKSPQLLVYNVKTLTDGVPSRFSGSGSGTQFSLKINSLQPEDFGSYYCQHHYDTPYTFGRGTKLEIKR
